Measured values: patent US20210238260

Target: Factor X (FX), P00742
Sequence (P00742 whole entry, looked up): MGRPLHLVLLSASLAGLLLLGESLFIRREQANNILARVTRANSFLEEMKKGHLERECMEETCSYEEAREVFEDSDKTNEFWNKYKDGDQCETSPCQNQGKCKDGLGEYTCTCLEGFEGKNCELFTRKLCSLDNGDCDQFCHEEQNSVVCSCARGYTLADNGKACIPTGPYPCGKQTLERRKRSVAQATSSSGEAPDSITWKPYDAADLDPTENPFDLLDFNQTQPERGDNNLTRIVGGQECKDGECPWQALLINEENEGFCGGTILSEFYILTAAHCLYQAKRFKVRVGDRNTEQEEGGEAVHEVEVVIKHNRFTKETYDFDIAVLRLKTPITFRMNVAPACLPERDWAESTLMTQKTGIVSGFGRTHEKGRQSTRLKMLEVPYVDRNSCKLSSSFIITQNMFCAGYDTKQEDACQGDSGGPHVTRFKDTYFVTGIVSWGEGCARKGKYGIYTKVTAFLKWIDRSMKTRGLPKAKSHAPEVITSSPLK

Protein	kcat [s⁻¹]	other results
FIXa-Y155F/K247N/N249S/T343R/R403E/E410N (protein) chain 1: YNSGKLEEFVQGNLERECMEEKCSFEEAREVFENTERTTEFWKQYVDGDQCESNPCLNGGSCKDDINSYECWCPFGFEGKNCELDVTCNIKNGRCEQFCKNSADNKVVCSCTEGYRLAENQKSCEPAVPFPCGRVSVSQTSKLTR chain 2: VVGGEDAKPGQFPWQVVLNGKVDAFCGGSIVNEKWIVTAAHCVETGVKITVVAGEHNIEETEHTEQNRSVIRIIPHHNYNAAINKYNHDIALLELDEPLVLNSYVTPICIADKEYTNIFLKFGSGYVSGWGRVFHKGRSALVLQYLRVPLVDRATCLRSTKFRIYNNMFCAGFHEGGRDSCQGDSGGPHVTEVEGTSFLTGIISWGEECAMKGKYGIYTKVSEYVNWIKNKTKLT		% of WT kcat/KM: 635%; KM: 0.052 µM; kcat (s^-1) of FX activation by FIXa variant in the Xase complex (FVIIIa, PC/PS vesicles, Ca2+), fluorogenic FXa read-out: 15 s⁻¹; kcat/KM for FX activation (Xase: FVIIIa, PC/PS vesicles, Ca2+): 2.9e+08 M⁻¹ s⁻¹
FIXa variant I251S/R318Y/R338E/E410N (protein) chain 1: YNSGKLEEFVQGNLERECMEEKCSFEEAREVFENTERTTEFWKQYVDGDQCESNPCLNGGSCKDDINSYECWCPFGFEGKNCELDVTCNIKNGRCEQFCKNSADNKVVCSCTEGYRLAENQKSCEPAVPFPCGRVSVSQTSKLTR chain 2: VVGGEDAKPGQFPWQVVLNGKVDAFCGGSIVNEKWIVTAAHCVETGVKITVVAGEHNIEETEHTEQKRNVSRIIPHHNYNAAINKYNHDIALLELDEPLVLNSYVTPICIADKEYTNIFLKFGSGYVSGWGRVFHKGYSALVLQYLRVPLVDRATCLESTKFTIYNNMFCAGFHEGGRDSCQGDSGGPHVTEVEGTSFLTGIISWGEECAMKGKYGIYTKVSRYVNWIKNKTKLT	6.4	
FIXa-Y155F/R318Y/R338E/R403E (protein) chain 1: YNSGKLEEFVQGNLERECMEEKCSFEEAREVFENTERTTEFWKQYVDGDQCESNPCLNGGSCKDDINSYECWCPFGFEGKNCELDVTCNIKNGRCEQFCKNSADNKVVCSCTEGYRLAENQKSCEPAVPFPCGRVSVSQTSKLTR chain 2: VVGGEDAKPGQFPWQVVLNGKVDAFCGGSIVNEKWIVTAAHCVETGVKITVVAGEHNIEETEHTEQKRNVIRIIPHHNYNAAINKYNHDIALLELDEPLVLNSYVTPICIADKEYTNIFLKFGSGYVSGWGRVFHKGYSALVLQYLRVPLVDRATCLESTKFTIYNNMFCAGFHEGGRDSCQGDSGGPHVTEVEGTSFLTGIISWGEECAMKGKYGIYTKVSEYVNWIKEKTKLT	5.1	
FIXa variant I251S/R318Y/R338E/R403E/E410N (protein) chain 1: YNSGKLEEFVQGNLERECMEEKCSFEEAREVFENTERTTEFWKQYVDGDQCESNPCLNGGSCKDDINSYECWCPFGFEGKNCELDVTCNIKNGRCEQFCKNSADNKVVCSCTEGYRLAENQKSCEPAVPFPCGRVSVSQTSKLTR chain 2: VVGGEDAKPGQFPWQVVLNGKVDAFCGGSIVNEKWIVTAAHCVETGVKITVVAGEHNIEETEHTEQKRNVSRIIPHHNYNAAINKYNHDIALLELDEPLVLNSYVTPICIADKEYTNIFLKFGSGYVSGWGRVFHKGYSALVLQYLRVPLVDRATCLESTKFTIYNNMFCAGFHEGGRDSCQGDSGGPHVTEVEGTSFLTGIISWGEECAMKGKYGIYTKVSEYVNWIKNKTKLT	4.8	
FIXa variant D85N/K228N/R318Y/R338E/R403E/E410N (protein) chain 1: YNSGKLEEFVQGNLERECMEEKCSFEEAREVFENTERTTEFWKQYVDGDQCESNPCLNGGSCKDDINSYECWCPFGFEGKNCELNVTCNIKNGRCEQFCKNSADNKVVCSCTEGYRLAENQKSCEPAVPFPCGRVSVSQTSKLTR chain 2: VVGGEDAKPGQFPWQVVLNGKVDAFCGGSIVNEKWIVTAAHCVETGVNITVVAGEHNIEETEHTEQKRNVIRIIPHHNYNAAINKYNHDIALLELDEPLVLNSYVTPICIADKEYTNIFLKFGSGYVSGWGRVFHKGYSALVLQYLRVPLVDRATCLESTKFTIYNNMFCAGFHEGGRDSCQGDSGGPHVTEVEGTSFLTGIISWGEECAMKGKYGIYTKVSEYVNWIKNKTKLT	6	
FIXa-Y155F/R338E/R403E/E410N (protein) chain 1: YNSGKLEEFVQGNLERECMEEKCSFEEAREVFENTERTTEFWKQYVDGDQCESNPCLNGGSCKDDINSYECWCPFGFEGKNCELDVTCNIKNGRCEQFCKNSADNKVVCSCTEGYRLAENQKSCEPAVPFPCGRVSVSQTSKLTR chain 2: VVGGEDAKPGQFPWQVVLNGKVDAFCGGSIVNEKWIVTAAHCVETGVKITVVAGEHNIEETEHTEQKRNVIRIIPHHNYNAAINKYNHDIALLELDEPLVLNSYVTPICIADKEYTNIFLKFGSGYVSGWGRVFHKGRSALVLQYLRVPLVDRATCLRSTKFTIYNNMFCAGFHEGGEDSCQGDSGGPHVTEVEGTSFLTGIISWGEECAMKGKYGIYTKVSEYVNWIKNKTKLT	5.9	
FIXa variant Y259F/K265T/Y345T (protein) chain 1: YNSGKLEEFVQGNLERECMEEKCSFEEAREVFENTERTTEFWKQYVDGDQCESNPCLNGGSCKDDINSYECWCPFGFEGKNCELDVTCNIKNGRCEQFCKNSADNKVVCSCTEGYRLAENQKSCEPAVPFPCGRVSVSQTSKLTR chain 2: VVGGEDAKPGQFPWQVVLNGKVDAFCGGSIVNEKWIVTAAHCVETGVKITVVAGEHNIEETEHTEQKRNVIRIIPHHNFNAAINTYNHDIALLELDEPLVLNSYVTPICIADKEYTNIFLKFGSGYVSGWGRVFHKGRSALVLQYLRVPLVDRATCLRSTKFTITNNMFCAGFHEGGRDSCQGDSGGPHVTEVEGTSFLTGIISWGEECAMKGKYGIYTKVSRYVNWIKEKTKLT	1.7	
FIXa-Y155F/R318Y/R403E/E410N (protein) chain 1: YNSGKLEEFVQGNLERECMEEKCSFEEAREVFENTERTTEFWKQYVDGDQCESNPCLNGGSCKDDINSYECWCPFGFEGKNCELDVTCNIKNGRCEQFCKNSADNKVVCSCTEGYRLAENQKSCEPAVPFPCGRVSVSQTSKLTR chain 2: VVGGEDAKPGQFPWQVVLNGKVDAFCGGSIVNEKWIVTAAHCVETGVKITVVAGEHNIEETEHTEQKRNVIRIIPHHNYNAAINKYNHDIALLELDEPLVLNSYVTPICIADKEYTNIFLKFGSGYVSGWGRVFHKGYSALVLQYLRVPLVDRATCLRSTKFTIYNNMFCAGFHEGGRDSCQGDSGGPHVTEVEGTSFLTGIISWGEECAMKGKYGIYTKVSEYVNWIKNKTKLT	2.9	
FIXa variant Y155F/K228N/R318Y/R338E/R403E/E410N (protein) chain 1: YNSGKLEEFVQGNLERECMEEKCSFEEAREVFENTERTTEFWKQYVDGDQCESNPCLNGGSCKDDINSYECWCPFGFEGKNCELDVTCNIKNGRCEQFCKNSADNKVVCSCTEGYRLAENQKSCEPAVPFPCGRVSVSQTSKLTR chain 2: VVGGEDAKPGQFPWQVVLNGKVDAFCGGSIVNEKWIVTAAHCVETGVNITVVAGEHNIEETEHTEQKRNVIRIIPHHNYNAAINKYNHDIALLELDEPLVLNSYVTPICIADKEYTNIFLKFGSGYVSGWGRVFHKGYSALVLQYLRVPLVDRATCLESTKFTIYNNMFCAGFHEGGRDSCQGDSGGPHVTEVEGTSFLTGIISWGEECAMKGKYGIYTKVSEYVNWIKNKTKLT	6.7	
FIXa variant D104N/K106S/I251S/R318Y/R338E/R403E/E410N (protein) chain 1: YNSGKLEEFVQGNLERECMEEKCSFEEAREVFENTERTTEFWKQYVDGDQCESNPCLNGGSCKDDINSYECWCPFGFEGKNCELDVTCNIKNGRCEQFCKNSANNSVVCSCTEGYRLAENQKSCEPAVPFPCGRVSVSQTSKLTR chain 2: VVGGEDAKPGQFPWQVVLNGKVDAFCGGSIVNEKWIVTAAHCVETGVKITVVAGEHNIEETEHTEQKRNVSRIIPHHNYNAAINKYNHDIALLELDEPLVLNSYVTPICIADKEYTNIFLKFGSGYVSGWGRVFHKGYSALVLQYLRVPLVDRATCLESTKFTIYNNMFCAGFHEGGRDSCQGDSGGPHVTEVEGTSFLTGIISWGEECAMKGKYGIYTKVSEYVNWIKNKTKLT	5.5	
FIXa variant Y155F/I251S/R318Y/R338E/R403E/E410N (protein) chain 1: YNSGKLEEFVQGNLERECMEEKCSFEEAREVFENTERTTEFWKQYVDGDQCESNPCLNGGSCKDDINSYECWCPFGFEGKNCELDVTCNIKNGRCEQFCKNSADNKVVCSCTEGYRLAENQKSCEPAVPFPCGRVSVSQTSKLTR chain 2: VVGGEDAKPGQFPWQVVLNGKVDAFCGGSIVNEKWIVTAAHCVETGVKITVVAGEHNIEETEHTEQKRNVSRIIPHHNYNAAINKYNHDIALLELDEPLVLNSYVTPICIADKEYTNIFLKFGSGYVSGWGRVFHKGYSALVLQYLRVPLVDRATCLESTKFTIYNNMFCAGFHEGGRDSCQGDSGGPHVTEVEGTSFLTGIISWGEECAMKGKYGIYTKVSEYVNWIKNKTKLT	7.2	
FIXa variant D104N/K106S/K247N/N249S/R318Y/R338E/R403E/E410N (protein) chain 1: YNSGKLEEFVQGNLERECMEEKCSFEEAREVFENTERTTEFWKQYVDGDQCESNPCLNGGSCKDDINSYECWCPFGFEGKNCELDVTCNIKNGRCEQFCKNSANNSVVCSCTEGYRLAENQKSCEPAVPFPCGRVSVSQTSKLTR chain 2: VVGGEDAKPGQFPWQVVLNGKVDAFCGGSIVNEKWIVTAAHCVETGVKITVVAGEHNIEETEHTEQNRSVIRIIPHHNYNAAINKYNHDIALLELDEPLVLNSYVTPICIADKEYTNIFLKFGSGYVSGWGRVFHKGYSALVLQYLRVPLVDRATCLESTKFTIYNNMFCAGFHEGGRDSCQGDSGGPHVTEVEGTSFLTGIISWGEECAMKGKYGIYTKVSEYVNWIKNKTKLT	5.2	
FIXa variant Y155F/K247N/N249S/R318Y/R338E/R403E/E410N (protein) chain 1: YNSGKLEEFVQGNLERECMEEKCSFEEAREVFENTERTTEFWKQYVDGDQCESNPCLNGGSCKDDINSYECWCPFGFEGKNCELDVTCNIKNGRCEQFCKNSADNKVVCSCTEGYRLAENQKSCEPAVPFPCGRVSVSQTSKLTR chain 2: VVGGEDAKPGQFPWQVVLNGKVDAFCGGSIVNEKWIVTAAHCVETGVKITVVAGEHNIEETEHTEQNRSVIRIIPHHNYNAAINKYNHDIALLELDEPLVLNSYVTPICIADKEYTNIFLKFGSGYVSGWGRVFHKGYSALVLQYLRVPLVDRATCLESTKFTIYNNMFCAGFHEGGRDSCQGDSGGPHVTEVEGTSFLTGIISWGEECAMKGKYGIYTKVSEYVNWIKNKTKLT	6.2	
FIXa variant K247N/N249S/R318Y/R338E/R403E/E410N (protein) chain 1: YNSGKLEEFVQGNLERECMEEKCSFEEAREVFENTERTTEFWKQYVDGDQCESNPCLNGGSCKDDINSYECWCPFGFEGKNCELDVTCNIKNGRCEQFCKNSADNKVVCSCTEGYRLAENQKSCEPAVPFPCGRVSVSQTSKLTR chain 2: VVGGEDAKPGQFPWQVVLNGKVDAFCGGSIVNEKWIVTAAHCVETGVKITVVAGEHNIEETEHTEQNRSVIRIIPHHNYNAAINKYNHDIALLELDEPLVLNSYVTPICIADKEYTNIFLKFGSGYVSGWGRVFHKGYSALVLQYLRVPLVDRATCLESTKFTIYNNMFCAGFHEGGRDSCQGDSGGPHVTEVEGTSFLTGIISWGEECAMKGKYGIYTKVSEYVNWIKNKTKLT	5.8	
